What all share (settings): SPR per cited protocol (Gsaller 2016; buffer not given), CBC 3.13-200 nM, 1:1 model with mass transport; SEC: 20 mM Tris/HCl, 150 mM NaCl, 1 mM DTT, pH 7.5
The target in data set [1] is Afu_CBC HapE P88L (core) P88L (Aspergillus fumigatus) (UniProt Q4WDM9). In words: SPR. In general terms: SPR reads the build-up and loss of mass on a sensor chip optically.
Data set [2] addresses An_CBC HapE P88L (Aspergillus nidulans) (UniProt G5EAZ0+Q5B5Z6+Q5AYY8). The data set can be described thus: SPR.
Data set [3] has as its target Afu_CBC HapE P88L (SPR co-injection construct);HapX bZIP peptide P88L (Aspergillus fumigatus;Aspergillus fumigatus) (UniProt Q4WDM9+Q4WER3). The data set can be described thus: SPR co-injection.
Data set [4] has as its target An_CBC wt (HapB/HapC/HapE core) (Aspergillus nidulans) (UniProt G5EAZ0+Q5B5Z6+Q5AYY8). The data set can be described thus: SPR.

On to “ACCCGAGCCAATCAGAGCGAAGTGA (double strand) [An_cccA 25 bp SPR duplex]”, for which the Kd in data set [1] and in data set [2] was 2000 nM throughout. Take “AAATCCACCAATCAACGCCTCCGTG (double strand) [Afu_cccA 25 bp SPR duplex]”: in data set [1], the dissociation constant (Kd) came to 429 nM. In data set [3], “AAATCCACCAATCAACGCCTCCGTGATTGTCAGCAAT (double strand) [Afu_cccA SPR co-injection duplex (CBC and HapX sites)]” gave a binding signal (fold half-life vs binary P88L CBC-DNA) of 7. In the case of “GAATTGACCAATCAGAGGTAGGATG (double strand) [An_cycA 25 bp SPR duplex]”, the dissociation constant (Kd) is 0.83 nM in data set [4], 100 nM in data set [1] and 116 nM in data set [2].

One may read the Kd as the constant that tells how readily two partners part at equilibrium. Low values mean tighter binding, high ones weaker binding.

These data come from publication PMC7266990.
